Reference: paper doi:10.1101/2022.02.02.478874 (bioRxiv, 2022)
“And” between values parts separate entries of the source, which are not always exact repeats. Equal values may be shown once. Read-outs that look alike come from different tables or passages of the source.

What was measured:
[1] = target: T1, mCherry-tagged full-length Spindly (^mChSpindly^FL) (human), Q96EA4; assay: mass photometry; settings: remark: other sources report otherwise
T1 chain: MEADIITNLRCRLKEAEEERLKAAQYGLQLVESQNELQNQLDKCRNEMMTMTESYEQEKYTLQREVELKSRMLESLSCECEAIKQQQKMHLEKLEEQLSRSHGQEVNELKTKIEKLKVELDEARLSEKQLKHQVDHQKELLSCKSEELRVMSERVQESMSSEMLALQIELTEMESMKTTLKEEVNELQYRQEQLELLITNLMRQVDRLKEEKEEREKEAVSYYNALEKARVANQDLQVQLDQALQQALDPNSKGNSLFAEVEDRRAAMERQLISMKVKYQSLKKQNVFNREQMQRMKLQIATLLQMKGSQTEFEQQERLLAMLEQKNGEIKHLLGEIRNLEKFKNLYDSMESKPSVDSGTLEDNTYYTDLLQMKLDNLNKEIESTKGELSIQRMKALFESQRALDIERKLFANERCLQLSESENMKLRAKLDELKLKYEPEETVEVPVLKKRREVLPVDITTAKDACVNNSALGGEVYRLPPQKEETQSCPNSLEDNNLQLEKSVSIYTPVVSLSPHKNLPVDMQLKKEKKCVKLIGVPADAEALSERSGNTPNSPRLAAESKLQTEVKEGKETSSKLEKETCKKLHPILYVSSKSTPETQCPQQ

[2] = target: the molecule itself
[3] = target: the molecule itself; assay: mass photometry
[4] = target: the molecule itself; assay: crystal structure
[5] = target: T2, Spindly^250-605 (human, UniProt Q96EA4 250-605); assay: SEC
T2 sequence: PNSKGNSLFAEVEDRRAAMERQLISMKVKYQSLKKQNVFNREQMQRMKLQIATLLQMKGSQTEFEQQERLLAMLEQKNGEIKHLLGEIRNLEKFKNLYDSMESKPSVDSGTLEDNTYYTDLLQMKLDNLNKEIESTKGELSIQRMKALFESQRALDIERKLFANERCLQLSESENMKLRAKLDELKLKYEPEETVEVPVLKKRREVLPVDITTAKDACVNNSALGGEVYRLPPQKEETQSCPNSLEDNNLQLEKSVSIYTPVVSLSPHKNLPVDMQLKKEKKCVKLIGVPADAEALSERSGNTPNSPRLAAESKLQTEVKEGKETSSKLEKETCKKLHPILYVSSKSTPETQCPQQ

B1: mCherry-tagged full-length Spindly (^mChSpindly^FL), Q96EA4 1-605 (natural protein)
chain: T1 chain
[1]
  stoichiometry N: 2

B2: ^mChSpindly^Δ276-306 (natural protein)
chain: MEADIITNLRCRLKEAEEERLKAAQYGLQLVESQNELQNQLDKCRNEMMTMTESYEQEKYTLQREVELKSRMLESLSCECEAIKQQQKMHLEKLEEQLSRSHGQEVNELKTKIEKLKVELDEARLSEKQLKHQVDHQKELLSCKSEELRVMSERVQESMSSEMLALQIELTEMESMKTTLKEEVNELQYRQEQLELLITNLMRQVDRLKEEKEEREKEAVSYYNALEKARVANQDLQVQLDQALQQALDPNSKGNSLFAEVEDRRAAMERQLISMKGSQTEFEQQERLLAMLEQKNGEIKHLLGEIRNLEKFKNLYDSMESKPSVDSGTLEDNTYYTDLLQMKLDNLNKEIESTKGELSIQRMKALFESQRALDIERKLFANERCLQLSESENMKLRAKLDELKLKYEPEETVEVPVLKKRREVLPVDITTAKDACVNNSALGGEVYRLPPQKEETQSCPNSLEDNNLQLEKSVSIYTPVVSLSPHKNLPVDMQLKKEKKCVKLIGVPADAEALSERSGNTPNSPRLAAESKLQTEVKEGKETSSKLEKETCKKLHPILYVSSKSTPETQCPQQ
[2]
  stoichiometry N: 2 and 4

B3: ^mChSpindly^ΔRV (natural protein)
chain: MEADIITNLRCRLKEAEEERLKAAQYGLQLVESQNELQNQLDKCRNEMMTMTESYEQEKYTLQREVELKSRMLESLSCECEAIKQQQKMHLEKLEEQLSRSHGQEVNELKTKIEKLKVELDEARLSEKQLKHQVDHQKELLSCKSEELRVMSEQESMSSEMLALQIELTEMESMKTTLKEEVNELQYRQEQLELLITNLMRQVDRLKEEKEEREKEAVSYYNALEKARVANQDLQVQLDQALQQALDPNSKGNSLFAEVEDRRAAMERQLISMKVKYQSLKKQNVFNREQMQRMKLQIATLLQMKGSQTEFEQQERLLAMLEQKNGEIKHLLGEIRNLEKFKNLYDSMESKPSVDSGTLEDNTYYTDLLQMKLDNLNKEIESTKGELSIQRMKALFESQRALDIERKLFANERCLQLSESENMKLRAKLDELKLKYEPEETVEVPVLKKRREVLPVDITTAKDACVNNSALGGEVYRLPPQKEETQSCPNSLEDNNLQLEKSVSIYTPVVSLSPHKNLPVDMQLKKEKKCVKLIGVPADAEALSERSGNTPNSPRLAAESKLQTEVKEGKETSSKLEKETCKKLHPILYVSSKSTPETQCPQQ
[3]
  stoichiometry N: 2

B4: Spindly^1-100 (domain or fragment)
chain: MEADIITNLRCRLKEAEEERLKAAQYGLQLVESQNELQNQLDKCRNEMMTMTESYEQEKYTLQREVELKSRMLESLSCECEAIKQQQKMHLEKLEEQLSR
[4]
  stoichiometry N: 2

B5: Spindly^1-275 (domain or fragment)
chain: MEADIITNLRCRLKEAEEERLKAAQYGLQLVESQNELQNQLDKCRNEMMTMTESYEQEKYTLQREVELKSRMLESLSCECEAIKQQQKMHLEKLEEQLSRSHGQEVNELKTKIEKLKVELDEARLSEKQLKHQVDHQKELLSCKSEELRVMSERVQESMSSEMLALQIELTEMESMKTTLKEEVNELQYRQEQLELLITNLMRQVDRLKEEKEEREKEAVSYYNALEKARVANQDLQVQLDQALQQALDPNSKGNSLFAEVEDRRAAMERQLISM
[2]
  stoichiometry N: 2 and 4

B6: Spindly^1-250 (domain or fragment)
chain: MEADIITNLRCRLKEAEEERLKAAQYGLQLVESQNELQNQLDKCRNEMMTMTESYEQEKYTLQREVELKSRMLESLSCECEAIKQQQKMHLEKLEEQLSRSHGQEVNELKTKIEKLKVELDEARLSEKQLKHQVDHQKELLSCKSEELRVMSERVQESMSSEMLALQIELTEMESMKTTLKEEVNELQYRQEQLELLITNLMRQVDRLKEEKEEREKEAVSYYNALEKARVANQDLQVQLDQALQQALDP
[5]
  binding result: binds

B7: ^mChSpindly^76-605 (domain or fragment)
chain: LSCECEAIKQQQKMHLEKLEEQLSRSHGQEVNELKTKIEKLKVELDEARLSEKQLKHQVDHQKELLSCKSEELRVMSERVQESMSSEMLALQIELTEMESMKTTLKEEVNELQYRQEQLELLITNLMRQVDRLKEEKEEREKEAVSYYNALEKARVANQDLQVQLDQALQQALDPNSKGNSLFAEVEDRRAAMERQLISMKVKYQSLKKQNVFNREQMQRMKLQIATLLQMKGSQTEFEQQERLLAMLEQKNGEIKHLLGEIRNLEKFKNLYDSMESKPSVDSGTLEDNTYYTDLLQMKLDNLNKEIESTKGELSIQRMKALFESQRALDIERKLFANERCLQLSESENMKLRAKLDELKLKYEPEETVEVPVLKKRREVLPVDITTAKDACVNNSALGGEVYRLPPQKEETQSCPNSLEDNNLQLEKSVSIYTPVVSLSPHKNLPVDMQLKKEKKCVKLIGVPADAEALSERSGNTPNSPRLAAESKLQTEVKEGKETSSKLEKETCKKLHPILYVSSKSTPETQCPQQ
[3]
  stoichiometry N: 2
